From PMC5011719, “The amyloid fold of Gad m 1 epitopes governs IgE binding” (Scientific Reports, 2016)

Molecular target: the molecule itself
Test: AFM + dynamic light scattering; fibril dimensions from AFM images (2 nm height, 15 nm diameter, average length 350 nm) and the RH of the monomer from DLS; geometrical calculation

B1: rGad m 1 wt (recombinant Gad m 1, Atlantic cod beta-parvalbumin) (natural protein, UniProt A5I874 1-109, looked up)
chain: MAFAGILNDADITAALAACKAEGSFDHKAFFTKVGLAAKSSADIKKVFEIIDQDKSDFVEEDELKLFLQNFSAGARALSDAETKVFLKAGDSDGDGKIGVDEFGAMIKA
notes: Gad m 1, Atlantic cod beta-parvalbumin; synthetic ORF in pET15b; Monomer in Ca2+, forms amyloids in EDTA; also called rGad wt; not shown: 6XHis, N-terminal, kept
B1 was tested, and the “stoichiometry N” value was 370.
